# Experiment: soluble on expression in E. coli; label from the status in PepcDB or PDB records
row,Sequence,soluble on expression in E. coli
1,MSSVYTMKRIWLQKDKKAYQAWRELMEKAELQTTEALDYTVGIYDDTALIASGSLSGKTIKCVAVCKKYQSENLLTQLVVHLLEKLREENQLHSFLYTKPKNEQIFQSLGFQKVVANQEVLFMEQGKPDFADYLGYLTQHKKAGPASSIVMNANPFTKGHQYLVEKAAQESPHVYVFVLSEDKSLFSKEARFAMVQKGVAHLPNVTVLSTEDYLVSSATFPTYFLKEKAPLEVAAIQATLDATLFKERIAPILEIQQRYVGEEPYSEVTAVYNQAMQQVFGQTITLTIVPRLASDGELISATKVRKAMAEGDKETLKKFLPATSYQYLVEHKKLMR,not soluble
2,MGSDKIHHHHHHMTKNTVRTYIKQTWKTLTRSHQHLLESAQDTKLEHQPNTPWIIYISPQEDCNTVQSVLERSLSAKEMQQIEIRTLPSEVEAIQEHGLLYLPGAYVVPGGRFNEMYGWDSYFILLGLLQDEEWELAQSQVDQLLYQVQHYGTILNANRTYMLTRSQPPVLSMMVLALFQHTQDQAWLKSTLPLLEQFYYYWVVPPHLNSATGLSRYYALGEGAAPEVLFSELDETGRSHYERVKEYYKTFEIDDYDVSLFYDSERDELTDLFYKGDRSMRESGFDITNRFGPFSVDIVHYAPVCLNSLLYQMEQDLAQIHKILDNPELAEQWSDRATLRRERINQYLWDEEKGIYLDYHFYSGKRRHYEFATTFYPLWTGLSSPEQAQRIVENLSLFTAPGGIFTSTHVTGNQWDAPFGWAPLTLIAVQGLYRYGYRKEGDDIAHKFLTMAIQEFTKYGFFVEKYDVERCSAQVSDEICFGYSSNEIGFGWTNGVILELLANLDDS,not soluble
3,MKVLNELRQFYPLDELLRAAEIPRSTFYYHLKALSKPDKYADVKKRIGEIYHENRGRYGYRRVTLSLHREGKQINHKAVQRLMGTLSLKAAIKVKRYRSYRGEVGQTAPNVLQRDFKATRPNEKWVTDVTEFAVNGRKLYLSPVIDLFNNEVISYSLSERPVMNMVENMLDQAFKKLNPHEHPVLHSDQGWQYRMRRYQNILKEHGIKQSMSRKGNCLDNAVVECFFGTLKSECFYLDEFSNISELKDAVTEYIEYYNSRRISLKLKGLTPIEYRNQTYMPRV,not soluble
4,LESKNMTWYRMLLVTPVRQGEKVRKFFLHAFHSFEYRALSSGTEEEGLVLTVNDSERTEEIFSCCEKMKAFCKNFLGETPQILCSRAYQQGDDSSLLYEQTKAYAKGRSAEQILIVPQNAEEGDGTDTLLKRVQTYIRNHYTERLTLADIAEAVHVSSSYLSRFYKLKAGENLFDTINSLRVEKAKELLLRGDKKIYEIAALTGFEDTAYFSKVFKKYAGCPPKEYEQSGGRNL,not soluble
5,MRPVFPLILSAVLFLSCFFGARQTEASASKRAIDANQIVNRMSLDEKLGQMLMPDFRNWQKEGESSPQALTKMNDEVASLVKKYQFGGIILFAENVKTTKQTVQLTDDYQKASPKIPLMLSIDQEGGIVTRLGEGTNFPGNMALGAARSRINAYQTGSIIGKELSALGINTDFSPVVDINNNPDNPVIGVRSFSSNRELTSRLGLYTMKGLQRQDIASALKHFPGHGDTDVDSHYGLPLVSHGQERLREVELYPFQKAIDAGADMVMTAHVQFPAFDDTTYKSKLDGSDILVPATLSKKVMTGLLRQEMGFNGVIVTDALNMKAIADHFGQEEAVVMAVKAGVDIALMPASVTSLKEEQKFARVIQALKEAVKNGDIPEQQINNSVERIISLKIKRGMYPARNSDSTKEKIAKAKKIVGSKQHLKAEKKLAEKAVTVLKNEQHTLPFKPKKGSRILIVAPYEEQTASIEQTIHDLIKRKKIKPVSLSKMNFASQVFKTEHEKQVKEADYIITGSYVVKNDPVVNDGVIDDTISDSSKWATVFPRAVMKAALQHNKPFVLMSLRNPYDAANFEEAKALIAVYGFKGYANGRYLQPNIPAGVMAIFGQAKPKGTLPVDIPSVTKPGNTLYPLGYGLNIKTGRPL,soluble
6,MKVVILGSGSYSGTPKPLCNCENCSIARRNPAFRRTRFSLYIEEGKILVDPSPDLHYHLERLNKKVENVFITHAHFDHIFGVPDLQVYKKLIISSNTLGIKVAKELSRLAFGSEVPSGYEWRYEELQFWNEYSFDNFRVIHFPVIHSLEIAGGYLFEIKGRRIGVTGDTGPEILKDEKVKKLLEGVDILIVEMTKRESIPGVHLGVSDSIEFAKVVGASYTVFAHISHTNYSHEVLEKRVRESGVQGEVARDFTIIEVLEHHHHHH,not soluble
7,MSLSFKNNLKLLLSTQNVLIYILNSEEERLEYKIHLMIRQNIKKTIYCWNFIDGYYNNPNYLNKAIRNPLQAIEFIEQLNFPTSTIFFLKDFHVFINDISVIRKIKNLSRFLKQANSSIIISASEMQVPSLLKDFITVLEFPLPNYEEINLELHRLFKIMNVDSSIYSEYFHDLTLAYRGFSIEKIRISIAKLLTSNLSSTHLIKNILYEKRQLIEQTDEGHHHHHH,not soluble
8,MRIVALEGIDGSGVSTHSRLLHARLAGAGVKSCLWKEPTEGPVGRLIRGFLRSTEGVDSDLMALLFAADRLWGLRLGVVERCGGSPEVLVVDRYKYSSLAYQGVGSGLEWVDAVNRKAPEAEILVYIDVPTEVALRRITARERREVFETPEFLERVKSMYEEVLRLARARGVKVIRVEGVRGGVERGIEDVQGEIAERVFEALGLARA,soluble
9,MKVVPAQRCVYSFSANMAPVEEVYPGEQVVFETLDALGGSYDKIDFSKVNPATGPVFVNGVKPGDTLKVRIKRIELPRRGMIVTGKGFGVLGDEVEGFHTKELEIEKWAVLFDGVRIPIHPMVGVIGVAPQEGEYPTGTAHRHGGNMDTKEITENVTVHLPVFQEGALLALGDVHATMGDGEVCVSACEVPAKVVVEIDVSKEEIKWPVVETNDAYYIIVSLPDIEEALKEVTRETVWFIQRRKTIPFTDAYMLASLSVDVGISQLVNPAKTAKARIPKYIFTGVLEHHHHHH,not soluble
10,MQRGLLVLHASAIAAAGKGAIFMGDKGAGKSTTASALIRAGHELLTDDVVALDLARPDAPMIVAGFPQIKLAADAAAAISLGRAEVRPQVHPAIEKMQHRLHGAFSGGMVPATRIYVLERGLEHHHHHH,not soluble
11,MGSDKIHHHHHHMSQTQQSASITSETQSFDVILVGGGMVGAATAIGLAQQGLHIAVIESFAPEAYSPEQALDVRVSAISVASEHLLEQLGALDSLLKMRNVPYLGLETWELDGCITQFHSSQIGASHLGHIVENRLVQLALWEQMQQWENIRLFCPERVAHFARGVDTVSVHLQSGCLLEAKLLVGADGANSHVRQWAGIGISGWDYAQSAMLINIQTTQGQQDVTWQQFTPSGPRSLLPLPGNHASLVWYDDANRIKQLMQLNNKQLAEQIRQHFPARLDSDFIVEAKGSFALTRRHAQVYVKPNVVILGDAAHTINPLAGQGVNLGFKDVEALLSVIKAALTEDKPWWSTEVLGKYQAKRYLDNQLMMTTMDVFYAGFSNDILPLKLLRNGALKLANINSPLKQTVLKYAMGLN,not soluble
12,SAGVRGLRLVERYTQDTANIINNVIKLDKQKVEAFSIQYKDPKNFRVQVKINAKGNYKKDTVKTYLSQVGLSDGDLNDTGTLEAEIIYTYMPPAASFFSASKFDKLTRAINFNTNLRIQIIGKDSVMTKLLQQSSFVKQLADQKFQDQSINLLPYVLYSI,not soluble
13,MIEWQLAELIPHAGDMILIDQVLDFDEEQINTRLTVRADGLFNQPDGSLPAWLGIELMAQSVAAYAGCQARSKGEAVKLGFLLGSRKFDCNVARFPAGSELHIHAIRSLQDDSGMGVFECTLTGPDITALARLNVYCPPNTADYLAEGAPALEHHHHHH,not soluble
14,MHHHHHHNEEFRPEMLQGKKVIVTGASKGIGREMAYHLSKMGAHVVLTARSEEGLQKVVSRCLELGAASAHYIAGTMEDMTFAEQFIVKAGKLMGGLDMLILNHITQTSLSLFHDDIHSVRRVMEVNFLSYVVMSTAALPMLKQSNGSIAVISSLAGKMTQPMIAPYSASKFALDGFFSTIRTELYITKVNVSITLCVLGLIDTETAMKEISGIINAQASPKEECALEIIKGTALRKSEVYYDKSPLTPILLGNPGRKIMEFFSLRYYNKDMFVSN,soluble
15,MVRIALEGELFKGVTSLLDQADRTAGAEIFSALYELNDPRGLEVRLQAHDHGDPKIRNVVLGNERGKKNGVEVDDADSDNRHNLHAAGVNVTDRILPDGSIPHNKFMVLEENGKPTKVLTGSTNWTSTGLATQTNNTLIIKSPLVAARYKEYWTSVKHFSELGADAPKKLQDPLEHHHHHH,not soluble
16,MPSYKLTYFNVRGYGEPARILFHLADVPFEDFRMTIGDGTWENLKAKTPFGQAPVLSVDGFEIPQSAAINRYLAKQFGYAGKTPEEQAWTDAIVDQYKDFMVSIKEVGKASAAGKSAEEVGKIIQSDLVPARDAFFVIINKILEKSKSGFLVGDGLTIADIVIVECITTLDKHQLFTASEQPKLVALREKVYAIPAIKKWVEIRPDTLN,not soluble
17,MLRSLLIRATAPAVCAGLLWTAAPAHAQSPAPTRPVSSDTWADRATGTYRALQKHLYEGPGDHGLYLEHTPRQATDQEHSYLWPFREAAQAAVDMQRLPRTGPAYRQDAAERFDTAELYHTGGERPGYRSYLPAPLGTGGDVYYDDNAVVALSQLDQYEETGDARYLRRAEQVVPVVSRAWDGDAAKACPGGMDWYDAPGNTIRATNVTALSAQLAARLYEHTRNRAYLDKAEQWYGWVYACMRKAPGLYVNDRGDDGSTNETLWTYNSGAMIGTATALYRGTGDARYLEKAVADARGSLAYWTGGTRLHDQPAVFNAFYFKDLLDLDAVRPDSAYLSAMSAYADNTYRSNRDASSGLFRFQPSNGGDYDPAAPAATLNQSAMVQIFATLADATRRDHRTSLEHHHHHH,not soluble
18,MGSDKIHHHHHHMKSYFVTMGFNETFLLRLLNETSAQKEDSLVIVVPSPIVSGTRAAIESLRAQISRLNYPPPRIYEIEITDFNLALSKILDIILTLPEPIISDLTMGMRMINTLILLGIIVSRKRFTVYVRDEGGGSRVISFNDNTIRALMRDYSREEMKLLNVLYETKGTGITELAKMLDKSEKTLINKIAELKKFGILTQKGKDRKVELNELGLNVIKLNKSVIESSKSSEELVKENKGKEVNIPY,not soluble
19,MKTPDQKSCETAESSNTKYSPNLVIDGAAVSNEDVAGKVADLEYAHSFPDLVLNVEKHDDEYIKSFLLQRNWYHGMMFGKAAEKLLKWESSYIVRRSMGPTHKFLCITARVEDKYFHFQFNWNSEGWSCPILYEKFPRIPVKRYEHIYQLLDAWSLVVNQLVPISRCSMILQHSSIALENQLGRGAFGEVIKAKYVPMGATVPTEVAVKRLIGDAKRPQLVDFCNEANIMTLLEHKNIVALYGFASLQQPIMLVIEFVPGGDLRKYLQRTPNVPSKQIIKFAMEIASGMKHLSSKNVIHRDLAARNCLITKELNVKISDFGLSVNESETKMKSLKKAPIRWLSPETFSKGLFNEKTDVWSYGVLLTELMTRCAHDPLWPKNLKQVQKWIKESEHPHKIEDGDPSELKEIVDACCAKIPSVRINFREVKNRLAMLQQKKKTLELDAQKPMSPNPAIEKKKSEDRRNNMDRRNKTNRKSHTSTDRTNSNNTLTRKKSRDAGKNDRSNERKNKAKGGNLSVDGTNKSSRRKEQKGAVGISQEMVTK,not soluble
20,MCISKIDMAKVKKFFKEYLFAKFQCKNRELYRQLKDYDPKDDQKYLKWEHFVEYVEQVLEALDKTSAQIIKEIYIQNKRICELPYSYSTYYAYRKKAIIELLAYLDLKI,soluble
21,MGSDKIHHHHHHMAANNTITFYDLALSTGATISPFVWATKYALKHKGFDLDVVPGGFTGILERTGGKTERLPAIVDDGEFVLDSWGIVEYLDAKYPDRPVLIPHESVAATLKALDNWFWNAAVGPWMFCFCQDYRDLSLPQDHEYVTHSREKMLGRKLEEVQAGREERLPKISAALEPLRAALAQHQWLGGSSPNYADYRIMGGILFTASVCKTPVLANDDPLRDWIERCLDLYGGLGRHPGLFPLFGLEQREGDPDLFNRAAGQGGIYKRNTGPESTRAETQRITEGMKK,not soluble

# Source: the DeepSol protein solubility set
